What was measured:
[1] = target: T1, human CLCP1 (CUB, LCCL-homology, coagulation factor V/VIII homology domains protein), full length, on cells (human, UniProt Q96PD2 67-775); assay: cell-based or functional assay
T1 sequence: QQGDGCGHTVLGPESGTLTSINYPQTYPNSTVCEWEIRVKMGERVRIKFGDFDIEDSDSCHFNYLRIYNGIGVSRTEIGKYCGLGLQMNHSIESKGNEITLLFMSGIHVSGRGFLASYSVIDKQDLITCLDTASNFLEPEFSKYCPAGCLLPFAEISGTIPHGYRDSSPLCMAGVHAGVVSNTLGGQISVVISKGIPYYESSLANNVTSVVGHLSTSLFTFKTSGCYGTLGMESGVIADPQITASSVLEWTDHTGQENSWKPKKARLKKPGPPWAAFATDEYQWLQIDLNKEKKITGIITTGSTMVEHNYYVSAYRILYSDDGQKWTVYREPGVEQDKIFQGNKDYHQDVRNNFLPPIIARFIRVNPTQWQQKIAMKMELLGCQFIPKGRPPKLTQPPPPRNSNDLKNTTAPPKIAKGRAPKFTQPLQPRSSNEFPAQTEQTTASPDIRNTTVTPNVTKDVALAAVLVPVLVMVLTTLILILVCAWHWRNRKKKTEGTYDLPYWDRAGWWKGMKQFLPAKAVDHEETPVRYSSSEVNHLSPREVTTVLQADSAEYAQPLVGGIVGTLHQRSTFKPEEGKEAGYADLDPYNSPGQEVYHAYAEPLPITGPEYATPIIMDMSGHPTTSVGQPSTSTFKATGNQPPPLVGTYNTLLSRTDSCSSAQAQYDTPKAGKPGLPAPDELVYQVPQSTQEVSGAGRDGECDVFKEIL

[2] = target: T2, E. coli-produced recombinant protein corresponding to aa 195-aa 457 in SEQ ID NO: 2 (human, UniProt Q96PD2 195-457); assay: ELISA on purified E. coli fragment
T2 construct: pET28a expression system; vector-encoded tag residues not described
T2 sequence: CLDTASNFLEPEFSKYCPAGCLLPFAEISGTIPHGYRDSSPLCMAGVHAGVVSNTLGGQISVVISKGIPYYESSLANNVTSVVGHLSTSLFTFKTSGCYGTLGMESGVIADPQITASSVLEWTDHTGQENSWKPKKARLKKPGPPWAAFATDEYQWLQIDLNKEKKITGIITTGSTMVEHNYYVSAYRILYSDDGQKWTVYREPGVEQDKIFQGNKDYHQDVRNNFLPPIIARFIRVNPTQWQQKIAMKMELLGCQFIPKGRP
Experimental: (§1) Each antibody was assayed by ELISA using the purified proteins prepared described above.

[3] = target: T3, E. coli-produced recombinant protein corresponding to aa 195-aa 465 in SEQ ID NO: 2 (human, UniProt Q96PD2 195-465); assay: ELISA on purified E. coli fragment
T3 construct: pET28a expression system; vector-encoded tag residues not described
T3 sequence: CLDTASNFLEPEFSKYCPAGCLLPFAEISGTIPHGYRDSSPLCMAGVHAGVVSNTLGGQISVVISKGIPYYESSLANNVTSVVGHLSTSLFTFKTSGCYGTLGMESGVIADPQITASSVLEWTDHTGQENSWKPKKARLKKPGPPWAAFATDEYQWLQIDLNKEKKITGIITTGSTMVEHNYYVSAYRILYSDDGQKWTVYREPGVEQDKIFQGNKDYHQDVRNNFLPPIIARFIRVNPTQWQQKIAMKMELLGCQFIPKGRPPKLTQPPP
Experimental: as §1

[4] = target: T4, E. coli-produced recombinant protein corresponding to aa 195-aa 461 in SEQ ID NO: 2 (human, UniProt Q96PD2 195-461); assay: ELISA on purified E. coli fragment
T4 construct: pET28a expression system; vector-encoded tag residues not described
T4 sequence: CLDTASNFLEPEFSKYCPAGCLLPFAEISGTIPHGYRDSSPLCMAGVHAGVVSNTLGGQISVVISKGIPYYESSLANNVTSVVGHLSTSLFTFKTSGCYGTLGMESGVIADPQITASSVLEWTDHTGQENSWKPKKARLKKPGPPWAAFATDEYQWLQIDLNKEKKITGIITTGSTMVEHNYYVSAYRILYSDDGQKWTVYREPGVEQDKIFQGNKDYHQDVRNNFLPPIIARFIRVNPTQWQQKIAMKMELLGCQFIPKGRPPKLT
Experimental: as §1

[5] = target: T5, E. coli-produced recombinant protein corresponding to aa 195-aa 453 in SEQ ID NO: 2 (human, UniProt Q96PD2 195-453); assay: ELISA on purified E. coli fragment
T5 construct: pET28a, BL21, urea-solubilised, TALON-purified; vector-encoded tag residues not described
T5 sequence: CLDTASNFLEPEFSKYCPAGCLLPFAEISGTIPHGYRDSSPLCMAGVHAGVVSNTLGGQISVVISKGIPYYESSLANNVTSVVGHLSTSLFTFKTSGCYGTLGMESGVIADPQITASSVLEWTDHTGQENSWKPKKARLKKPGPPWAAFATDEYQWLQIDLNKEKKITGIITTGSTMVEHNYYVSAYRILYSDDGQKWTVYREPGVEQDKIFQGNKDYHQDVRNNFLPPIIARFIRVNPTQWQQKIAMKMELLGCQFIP
Experimental: as §1

[6] = target: T6, purified protein of the whole extracellular domain of human CLCP1 (amino acid positions 1 to 526), myc-His … (human, UniProt Q96PD2 67-526); assay: ELISA on purified extracellular domain protein, culture supernatants
T6 construct: also called whole extracellular domain protein; complete extracellular domain protein; not shown: myc-His tag
T6 sequence: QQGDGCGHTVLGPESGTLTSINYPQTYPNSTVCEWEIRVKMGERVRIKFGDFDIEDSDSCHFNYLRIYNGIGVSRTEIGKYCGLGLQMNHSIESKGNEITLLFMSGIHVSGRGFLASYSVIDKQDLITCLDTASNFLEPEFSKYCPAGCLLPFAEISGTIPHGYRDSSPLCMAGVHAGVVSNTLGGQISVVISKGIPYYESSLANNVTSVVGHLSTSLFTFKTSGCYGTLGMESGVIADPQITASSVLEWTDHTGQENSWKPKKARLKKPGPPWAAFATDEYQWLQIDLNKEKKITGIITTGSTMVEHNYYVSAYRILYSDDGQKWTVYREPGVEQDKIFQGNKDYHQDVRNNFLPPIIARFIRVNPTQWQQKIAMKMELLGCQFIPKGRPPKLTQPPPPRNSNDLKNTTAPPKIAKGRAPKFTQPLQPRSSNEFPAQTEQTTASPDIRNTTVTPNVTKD
Experimental: Using the culture supernatants whose IgG concentrations had been determined, the activities of the chimeric antibody, humanized antibody, and serine-substituted humanized antibody were assessed and compared by ELISA for the purified protein of the extracellular domain of CLCP1 described in Example 21. […] Thus, humanized FA19-1 was successfully designed (FIGS. 42 and 43).

B1: chimeric FA19-1 antibody (antibody, V domains shown)
VH: EVQLQQSGPELVKPGASVKMSCKASGYTFTTYIMHWVKQKPGQGLEWIGYINPYNDGTKYNEKFKGEATLTSDKSSSTAYMELSSLTSEDSAVYYCARGANYYGSNYNWSFDVWGAGTTVTVSS
VL: DIQMTQSPSSLSASLGGKVTITCRASQDINKYIAWYQHKPGKGPRLLIHHTCTLQPGIPSRFSGSGSGRDYSFSISNLEPEDIATYYCLQYDYLWTFGGGTKL
What does the source list for B1?
ADCC, % cytotoxicity (lactate dehydrogenase release), A549 targets, antibody 10 ug/ml, E/T ratio 50, five donors [1]: 47.1%; ADCC, % cytotoxicity (lactate dehydrogenase release), NCI-H460-LNM35 targets, antibody 10 ug/ml, E/T ratio 50 [1]: 32.4%

B2: FA19-1 (antibody, V domains shown)
VH: EVQLQQSGPELVKPGASVKMSCKASGYTFTTYIMHWVKQKPGQGLEWIGYINPYNDGTKYNEKFKGEATLTSDKSSSTAYMELSSLTSEDSAVYYCARGANYYGSNYNWSFDVWGAGTTVTVSS
VL: DIQMTQSPSSLSASLGGKVTITCRASQDINKYIAWYQHKPGKGPRLLIHHTCTLQPGIPSRFSGSGSGRDYSFSISNLEPEDIATYYCLQYDYLWTFGGGTKL
notes: Mouse monoclonal; also called antibody No. FA19-1; Antibody 2
Does B2 bind [2]?
Result: no binding

Does B2 bind [3]?
Result: no binding

Does B2 bind [4]?
Result: no binding

Does B2 bind [5]?
Result: no binding

B3: serine-substituted humanized FA19-1 antibody (FA19RHA and serine-substituted light chain) (antibody, V domains shown)
VH: QVQLVQSGAEVKKPGASVKVSCKASGYTFTTYIMHWVRQAPGQRLEWIGYINPYNDGTKYNEKFKGRVTVTRDTSANTAYMELSSLKSEDTAVYYCARGANYYGSNYNWSFDVWGQGTLVTVSS
VL: DIQMTQSPSSLSASVGDRVTITCRASQDINKYIAWYQQKPGKAPKLLIYHTSTLQPGVPSRFSGSGSGTDFTLTISSLQPEDFATYYCLQYDYLWTFGGGTKVEIK
notes: it is the cysteine of the CDR2 motif HTCTLQP; also called serine-substituted humanized antibody; serine-substituted antibody
Does B3 bind [6]?
Result: binds

Reference: patent US20110293618A1 (MEDICAL AND BIOLOGICAL LABORATORIES, published 2011)
